Measured values taken from PMC10435448, “A RAD51–ADP double filament structure unveils the mechanism of filament dynamics in homologous recombination”.

Molecular target: hRAD51 wild-type (Homo sapiens, UniProt Q06609 1-339)
Assay: cryo-EM structure (3.1 A); 1 mM ADP, 5 mM CaCl2, 2.5 mM MgCl2; ssDNA density weak and diffuse; EMSA: 35 mM Tris-HCl pH 7.5, 1 mM DTT, 10 mM MgCl2, 100 ng/ul BSA, 50 mM KCl, 2 mM ADP, 37 C 10 min, 2% agarose TAE at 4 C; cryo-EM: 35 mM Tris-HCl pH 7.5, 108
Conditions: protein: recombinant; tags: none stated (pET11, untagged purification); chain copies: 10; single strand

Chain of hRAD51 wild-type (Q06609 whole entry): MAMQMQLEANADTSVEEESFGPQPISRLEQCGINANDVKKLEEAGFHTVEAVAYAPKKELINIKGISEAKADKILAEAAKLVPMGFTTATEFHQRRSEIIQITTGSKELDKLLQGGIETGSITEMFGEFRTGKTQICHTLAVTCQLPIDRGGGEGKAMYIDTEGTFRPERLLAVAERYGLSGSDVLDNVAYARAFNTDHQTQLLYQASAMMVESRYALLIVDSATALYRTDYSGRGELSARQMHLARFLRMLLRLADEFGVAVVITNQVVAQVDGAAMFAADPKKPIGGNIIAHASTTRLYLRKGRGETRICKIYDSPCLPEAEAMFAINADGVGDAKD

B1: Oligo 1 (80 nt ssDNA), unlabeled (ssDNA)
DNA: TTATGTTCATTTTTTATATCCTTTACTTTATTTTCTCTGTTTATTCATTTACTTATTTTGTATTATCCTTATCTTATTTA
- binding result: binds
